Target: myosin in murine skinned myocardium (principal isoform alpha-cardiac myosin) (mouse, UniProt Q02566 1-1938)
Test: cell-based or functional assay

Sequence of myosin in murine skinned myocardium (principal isoform alpha-cardiac myosin) (Q02566 whole entry, canonical isoform): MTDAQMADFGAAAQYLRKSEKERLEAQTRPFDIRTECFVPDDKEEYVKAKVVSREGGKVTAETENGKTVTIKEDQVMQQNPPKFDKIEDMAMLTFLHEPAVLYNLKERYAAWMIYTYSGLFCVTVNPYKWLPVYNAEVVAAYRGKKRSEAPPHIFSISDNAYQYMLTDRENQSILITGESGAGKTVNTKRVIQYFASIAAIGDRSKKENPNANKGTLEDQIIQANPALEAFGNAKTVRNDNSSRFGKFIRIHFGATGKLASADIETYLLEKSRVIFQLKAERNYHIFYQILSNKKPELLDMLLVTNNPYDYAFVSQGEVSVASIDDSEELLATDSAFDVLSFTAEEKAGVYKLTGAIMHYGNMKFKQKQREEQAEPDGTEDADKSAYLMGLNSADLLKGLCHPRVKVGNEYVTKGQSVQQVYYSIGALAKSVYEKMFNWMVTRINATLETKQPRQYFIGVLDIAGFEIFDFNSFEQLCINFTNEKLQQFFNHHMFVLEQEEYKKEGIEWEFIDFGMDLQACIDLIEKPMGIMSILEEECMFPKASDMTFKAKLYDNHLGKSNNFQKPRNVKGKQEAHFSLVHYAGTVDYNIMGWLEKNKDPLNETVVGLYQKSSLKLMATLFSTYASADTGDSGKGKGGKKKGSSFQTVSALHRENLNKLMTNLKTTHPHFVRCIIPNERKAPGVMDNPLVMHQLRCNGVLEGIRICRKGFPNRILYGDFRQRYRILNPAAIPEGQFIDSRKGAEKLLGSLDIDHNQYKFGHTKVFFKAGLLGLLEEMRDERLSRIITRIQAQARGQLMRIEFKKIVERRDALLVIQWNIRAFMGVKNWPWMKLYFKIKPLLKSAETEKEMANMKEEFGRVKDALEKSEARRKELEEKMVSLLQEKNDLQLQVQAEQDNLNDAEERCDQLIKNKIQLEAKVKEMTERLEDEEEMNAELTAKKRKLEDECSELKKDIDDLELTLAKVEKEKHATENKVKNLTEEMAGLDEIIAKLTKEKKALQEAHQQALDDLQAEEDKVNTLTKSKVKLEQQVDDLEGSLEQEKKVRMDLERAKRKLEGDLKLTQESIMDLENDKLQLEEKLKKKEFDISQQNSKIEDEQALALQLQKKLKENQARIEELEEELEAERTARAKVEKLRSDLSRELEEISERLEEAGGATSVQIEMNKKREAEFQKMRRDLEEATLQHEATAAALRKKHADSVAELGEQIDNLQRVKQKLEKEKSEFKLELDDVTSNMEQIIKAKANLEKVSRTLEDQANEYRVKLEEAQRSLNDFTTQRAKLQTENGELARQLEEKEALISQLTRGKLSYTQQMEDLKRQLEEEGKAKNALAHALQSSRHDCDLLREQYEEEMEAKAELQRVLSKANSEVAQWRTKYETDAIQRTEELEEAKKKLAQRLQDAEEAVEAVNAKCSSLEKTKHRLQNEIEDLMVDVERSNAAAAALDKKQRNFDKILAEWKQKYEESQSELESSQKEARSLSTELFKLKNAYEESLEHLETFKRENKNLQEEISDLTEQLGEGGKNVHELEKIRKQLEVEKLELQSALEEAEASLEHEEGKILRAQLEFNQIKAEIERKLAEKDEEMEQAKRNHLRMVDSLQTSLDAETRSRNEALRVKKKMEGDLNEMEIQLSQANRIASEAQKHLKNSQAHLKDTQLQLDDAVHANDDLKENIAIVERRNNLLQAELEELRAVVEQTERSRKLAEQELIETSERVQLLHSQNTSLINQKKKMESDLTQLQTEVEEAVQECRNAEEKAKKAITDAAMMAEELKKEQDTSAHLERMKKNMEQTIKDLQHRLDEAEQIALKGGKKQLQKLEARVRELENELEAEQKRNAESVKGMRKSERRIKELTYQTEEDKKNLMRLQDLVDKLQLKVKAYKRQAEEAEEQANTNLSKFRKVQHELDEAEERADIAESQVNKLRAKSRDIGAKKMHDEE

FSSLLKKRDAFRRDAKLE [peptide 302A]
force at intermediate pCa (scaled to force at pCa 4.5), mouse, 50 uM peptide, fold of control: ~2 x control
force at pCa 5.9 (scaled to force at pCa 4.5), mouse, 50 uM peptide, fold of untreated: ~3 x (fold of untreated force)

From patent publication US20130345135A1 (WISCONSIN ALUMNI RESEARCH FOUNDATION, published 2013)
